This passage reports percent of early apoptotic Jurkat E6-1 cells binding sCD163-biotin results from patent US20050214871A1.

The target in this assay is ligands present on the membranes of early apoptotic cells. The assay can be described thus: flow cytometry on anti-CD95-treated Jurkat E6-1 cells, streptavidin-PE detection.

“human soluble CD163, biotinylated (sCD163-biotin) (from UniProt Q86VB7 42-1045)” came in with a percent of early apoptotic Jurkat E6-1 cells binding sCD163-biotin above 50%.
